Literature values, collected in paper PMC7295915.

Assays:
[1] = target: ICAM-1 (Homo sapiens) (UniProt P05362)
[2] = target: CD80 (Homo sapiens) (UniProt P33681)
[3] = target: CD40L (Homo sapiens) (UniProt P29965)
[4] = target: CD48 (Homo sapiens) (UniProt P09326)
Sequence of CD48 (Homo sapiens) (P09326 27-220): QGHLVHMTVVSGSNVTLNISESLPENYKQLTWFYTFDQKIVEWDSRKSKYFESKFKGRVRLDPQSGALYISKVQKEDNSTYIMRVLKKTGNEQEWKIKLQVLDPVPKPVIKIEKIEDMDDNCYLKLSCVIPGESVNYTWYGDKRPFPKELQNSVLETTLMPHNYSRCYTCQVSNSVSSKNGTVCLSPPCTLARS

Sequence of CD40L (Homo sapiens) (P29965 113-261): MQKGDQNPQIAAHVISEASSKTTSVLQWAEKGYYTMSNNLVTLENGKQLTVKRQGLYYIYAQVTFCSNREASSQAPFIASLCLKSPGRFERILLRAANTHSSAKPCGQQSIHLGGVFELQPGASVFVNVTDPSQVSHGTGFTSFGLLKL
Sequence of ICAM-1 (Homo sapiens) (P05362 28-480): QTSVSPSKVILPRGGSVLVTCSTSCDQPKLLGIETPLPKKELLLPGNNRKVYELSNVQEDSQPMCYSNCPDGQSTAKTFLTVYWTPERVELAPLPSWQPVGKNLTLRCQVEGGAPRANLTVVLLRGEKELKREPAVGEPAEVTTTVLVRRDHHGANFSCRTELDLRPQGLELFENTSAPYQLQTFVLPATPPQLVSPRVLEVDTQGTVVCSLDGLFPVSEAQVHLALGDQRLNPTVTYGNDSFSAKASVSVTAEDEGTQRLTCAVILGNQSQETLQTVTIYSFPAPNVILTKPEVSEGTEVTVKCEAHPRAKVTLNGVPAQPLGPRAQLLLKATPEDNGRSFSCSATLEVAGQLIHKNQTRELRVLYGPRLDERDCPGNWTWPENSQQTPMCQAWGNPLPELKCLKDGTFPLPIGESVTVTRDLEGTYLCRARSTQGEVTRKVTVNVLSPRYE
Sequence of CD2 (P06729 25-209): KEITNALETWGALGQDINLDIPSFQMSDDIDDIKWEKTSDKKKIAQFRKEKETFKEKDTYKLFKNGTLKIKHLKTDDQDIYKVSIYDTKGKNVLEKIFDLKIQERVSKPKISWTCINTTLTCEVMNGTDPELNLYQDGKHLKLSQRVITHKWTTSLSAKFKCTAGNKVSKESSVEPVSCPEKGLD
Sequence of LFA-1 (P20701 26-1090): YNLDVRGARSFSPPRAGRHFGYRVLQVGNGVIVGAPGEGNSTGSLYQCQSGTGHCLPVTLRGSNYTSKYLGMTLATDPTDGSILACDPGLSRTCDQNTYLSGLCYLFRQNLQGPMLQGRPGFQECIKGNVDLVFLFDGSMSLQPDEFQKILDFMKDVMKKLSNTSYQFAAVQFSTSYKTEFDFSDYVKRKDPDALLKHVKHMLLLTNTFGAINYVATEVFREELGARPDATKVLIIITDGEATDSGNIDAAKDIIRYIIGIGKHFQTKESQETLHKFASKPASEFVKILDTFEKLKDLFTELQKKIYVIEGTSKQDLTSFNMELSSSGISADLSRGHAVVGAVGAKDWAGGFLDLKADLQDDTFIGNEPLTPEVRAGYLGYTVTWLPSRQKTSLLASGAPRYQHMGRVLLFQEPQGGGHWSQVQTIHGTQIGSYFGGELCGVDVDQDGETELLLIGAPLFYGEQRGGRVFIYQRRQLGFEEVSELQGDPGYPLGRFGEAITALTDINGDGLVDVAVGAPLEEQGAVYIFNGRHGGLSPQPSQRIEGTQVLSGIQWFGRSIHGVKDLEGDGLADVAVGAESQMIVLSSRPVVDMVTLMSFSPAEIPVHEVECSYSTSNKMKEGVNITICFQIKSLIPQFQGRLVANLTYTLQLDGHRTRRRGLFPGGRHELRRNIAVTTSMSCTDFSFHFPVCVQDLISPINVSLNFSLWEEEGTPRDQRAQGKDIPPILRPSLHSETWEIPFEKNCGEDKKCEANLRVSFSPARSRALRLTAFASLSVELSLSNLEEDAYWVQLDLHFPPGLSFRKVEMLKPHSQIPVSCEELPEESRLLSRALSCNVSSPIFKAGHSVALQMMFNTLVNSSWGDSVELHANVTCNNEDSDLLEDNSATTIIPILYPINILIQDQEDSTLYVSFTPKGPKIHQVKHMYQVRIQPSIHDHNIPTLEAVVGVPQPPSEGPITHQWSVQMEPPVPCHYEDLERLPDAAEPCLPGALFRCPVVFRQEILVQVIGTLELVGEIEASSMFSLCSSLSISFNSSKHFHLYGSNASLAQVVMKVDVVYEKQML
Sequence of LFA-1 (P05107 23-700, further chain): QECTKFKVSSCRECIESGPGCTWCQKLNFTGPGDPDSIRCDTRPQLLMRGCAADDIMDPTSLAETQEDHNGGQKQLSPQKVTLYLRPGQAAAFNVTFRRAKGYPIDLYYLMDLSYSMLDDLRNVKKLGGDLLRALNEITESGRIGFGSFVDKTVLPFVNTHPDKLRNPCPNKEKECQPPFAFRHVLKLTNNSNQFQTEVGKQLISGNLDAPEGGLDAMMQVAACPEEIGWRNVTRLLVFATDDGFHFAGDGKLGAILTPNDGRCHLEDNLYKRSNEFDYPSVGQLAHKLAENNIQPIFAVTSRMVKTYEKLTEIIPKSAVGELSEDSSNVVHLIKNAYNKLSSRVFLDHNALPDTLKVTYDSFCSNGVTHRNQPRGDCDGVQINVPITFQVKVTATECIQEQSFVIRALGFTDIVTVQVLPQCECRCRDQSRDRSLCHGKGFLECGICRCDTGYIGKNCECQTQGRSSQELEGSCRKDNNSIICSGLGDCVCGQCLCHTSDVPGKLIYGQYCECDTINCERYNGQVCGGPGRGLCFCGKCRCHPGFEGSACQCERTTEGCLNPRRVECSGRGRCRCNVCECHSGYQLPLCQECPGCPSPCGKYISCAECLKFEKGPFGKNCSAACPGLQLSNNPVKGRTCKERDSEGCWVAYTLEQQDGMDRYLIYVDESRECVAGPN
Sequence of CD80 (Homo sapiens) (P33681 35-242): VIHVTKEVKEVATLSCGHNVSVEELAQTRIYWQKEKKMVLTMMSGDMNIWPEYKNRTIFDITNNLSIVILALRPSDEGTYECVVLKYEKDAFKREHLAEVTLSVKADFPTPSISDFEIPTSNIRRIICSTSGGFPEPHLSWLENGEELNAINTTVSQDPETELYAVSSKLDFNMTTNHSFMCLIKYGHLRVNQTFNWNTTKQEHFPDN
Sequence of CD40 (P25942 21-277): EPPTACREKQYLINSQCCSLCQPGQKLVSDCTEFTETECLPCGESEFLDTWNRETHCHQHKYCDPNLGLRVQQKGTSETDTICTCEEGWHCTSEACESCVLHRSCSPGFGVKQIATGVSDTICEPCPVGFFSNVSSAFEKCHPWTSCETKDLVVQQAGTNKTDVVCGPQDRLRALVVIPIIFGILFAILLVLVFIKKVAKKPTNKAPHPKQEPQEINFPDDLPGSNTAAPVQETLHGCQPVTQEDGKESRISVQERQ

In the case of LFA-1 (from UniProt P20701), the Kd [1] is given as 500 nM.

For CD28 (from UniProt P10747), the Kd [2] is listed as 4000 nM.

For CD40 (from UniProt P25942), the Kd [3] is given as 200 nM.

In the case of CD2 (from UniProt P06729), the Kd [4] is given as 100000 nM.
